Results as given in patent US20120277286A1, “COMPOSITIONS AND METHODS FOR THE TREATMENT OR PREVENTION OF MITOCHONDRIAL DISEASES” (The Government of the USA, as represented by the Secretary, …, priority 2009, published 2012).
“And” between values parts separate entries of the source, which are not always exact repeats. Identical values can stand only once.

Assays:
HeLa cells = test: Parkin colocalization with mitochondria scored by confocal microscopy; type: cell-based; conditions: for YFP-Parkin (wild type or indicated mutant) colocalization with mitochondria, % of cells: HeLa cells, 10 μM CCCP, 1 hour; for cells with YFP-Parkin co-localized with TMRE: HeLa, no CCCP, YFP-Parkin alone or with PINK1-myc 1:4
Procedure, shortened: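 Transfected HeLa cells fixed 12–24 h post-transfection in 4% paraformaldehyde. Cells immunostained for mitochondrial markers and imaged by confocal microscopy. Parkin recruitment to mitochondria assessed by line-scan colocalization.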

[1] = test system: PINK1+/+ or PINK1−/− MEFs; test: Parkin-induced mitophagy in MEFs; type: cell-based, mouse; conditions: primary MEFs expressing YFP-Parkin, 20 μM CCCP, 24 hours; PINK1+/+ (CCCP line) or PINK−/− reconstituted with PINK1
Text: HeLa YFP-Parkin, PINK1+/+ SV40 transformed MEFs cells, PINK1−/− SV40 transformed MEF, M17 neuroblastoma control shRNA, M17 neuroblastoma PINK1, and Mfn1/2−/− MEF cell lines have been described previously (Narendra (2008) J Cell Biol 183: 795-803). PINK1+/+ and PINK1−/− primary MEFs were isolated from embryos using a standard protocol (Gautier (2008) Proc Natl Acad Sci USA 105: 11364-11369). Parkin+/+ and Parkin−/− transformed MEFs were created by isolation of primary cells from embryos of B6.129S4-Park2tm1Shn/J mice (Jackson Labs), using a standard protocol (Gautier (2008) Proc Natl Acad Sci USA 105: 11364-11369), followed by retroviral transduction of SV40 (Applied Biological Materials, Inc.). YFP-Parkin, YFPParkin mutants, mCherry-Parkin, PINK1-YFP, PINK1 KD-YFP, PINK1 Δ1-110-YFP, and Opa3-PINK1 Δ1-110-YFP are in C1 or N1 Clontech vectors. PINK1WT-V5, PINK1 KD-V5, and PINK1 Δ1-156-V5 are in pDest40 vector (Invitrogen). PINK1 patient mutations are in pLenti-V5 vector (Invitrogen). PINK1-myc is in a pCMBTNT vector (Promega).
Confocal microscopy of fixed samples, scoring of Parkin recruitment and Parkininduced mitophagy, and live cell imaging were performed as described previously (Narendra (2008) J Cell Biol 183: 795-803). Experiments in Mfn1/2 null cells were performed as described previously with minor modifications. […]

Molecule: N#CC(C#N)=NNc1cccc(Cl)c1 [CCCP, carbonyl cyanide m-chlorophenylhydrazone]
- YFP-Parkin (wild type or indicated mutant) colocalization with mitochondria, % of cells (HeLa cells): 78.49±2.61% and 96.0±3.5%
- cells with no detectable mitochondria [1]: 66.1±16.8%

B1: YFP-Parkin: YFP-tagged Parkin E3 ligase expressed from a transfected vector (protein, UniProt O60260 1-465, looked up)
E3 ubiquitin-protein ligase …: MIVFVRFNSSHGFPVEVDSDTSIFQLKEVVAKRQGVPADQLRVIFAGKELRNDWTVQNCDLDQQSIVHIVQRPWRKGQEMNATGGDDPRNAAGGCEREPQSLTRVDLSSSVLPGDSVGLAVILHTDSRKDSPPAGSPAGRSIYNSFYVYCKGPCQRVQPGKLRVQCSTCRQATLTLTQGPSCWDDVLIPNRMSGECQSPHCPGTSAEFFFKCGAHPTSDKETSVALHLIATNSRNITCITCTDVRSPVLVFQCNSRHVICLDCFHLYCVTRLNDRQFVHDPQLGYSLPCVAGCPNSLIKELHHFRILGEEQYNRYQQYGAEECVLQMGGVLCPRPGCGAGLLPEPDQRKVTCEGGNGLGCGFAFCRECKEAYHEGECSAVFEASGTTTQAYRVDERAAEQARWEAASKETIKKTTKPCPRCHVPVEKNGGCMHMKCPQPQCRLEWCWNCGCEWNRVCMGDHWFDV
modifications: YFP fusion
notes: YFP-tagged Parkin E3 ligase expressed from a transfected vector
- YFP-Parkin (wild type or indicated mutant) colocalization with mitochondria, % of cells (HeLa cells): 94.7±5.8%
- cells with YFP-Parkin co-localized with TMRE (HeLa cells): 0±0%

B2: PINK1: exogenously expressed wild type PINK1 (V5 or myc tagged) (protein, UniProt Q9BXM7 78-581, looked up)
Serine/threonine-protein …: AARLQRQFVVRAWGCAGPCGRAVFLAFGLGLGLIEEKQAESRRAVSACQEIQAIFTQKSKPGPDPLDTRRLQGFRLEEYLIGQSIGKGCSAAVYEATMPTLPQNLEVTKSTGLLPGRGPGTSAPGEGQERAPGAPAFPLAIKMMWNISAGSSSEAILNTMSQELVPASRVALAGEYGAVTYRKSKRGPKQLAPHPNIIRVLRAFTSSVPLLPGALVDYPDVLPSRLHPEGLGHGRTLFLVMKNYPCTLRQYLCVNTPSPRLAAMMLLQLLEGVDHLVQQGIAHRDLKSDNILVELDPDGCPWLVIADFGCCLADESIGLQLPFSSWYVDRGGNGCLMAPEVSTARPGPRAVIDYSKADAWAVGAIAYEIFGLVNPFYGQGKAHLESRSYQEAQLPALPESVPPDVRQLVRALLQREASKRPSARVAANVLHLSLWGEHILALKNLKLDKMVGWLLQQSAATLLANRLTEKCCVETKMKMLFLANLECETLCQAALLLCSWRAAL
modifications: V5 or myc tag
- cells with YFP-Parkin co-localized with TMRE (HeLa cells): 45.3±7.6%
- cells with no detectable mitochondria [1]: 65.5±5.0%
